Results taken from patent publication EP0702725B1.

Assays:
[1] = molecular target: recombinant human GIF secreted by COS-1 cells co-transfected with SRα-hcGIF and SRα-hfurin (human); test: absorption on 388F1-Sepharose; titration of GIF bioactivity in the fractions
[2] = molecular target: bovine serum albumin (BSA) (bovine) (UniProt P02769); test: same ELISA, control wells
[3] = molecular target: PLA2-binding GIF (antigen-binding GIF) from anti-CD3-stimulated human T-cell hybridoma AC5 (human)
[4] = molecular target: recombinant human GIF secreted by COS-1 cells co-transfected with SRα-hcGIF and SRα-hfurin (human); test: absorption on 388F1-Sepharose, acid elution; 12H5 GIF bioassay
[5] = molecular target: flow-through fraction from 110BH3-Sepharose of the culture supernatant of anti-CD3-stimulated AC5 cells; test: ELISA on wells coated with the flow-through fraction from 110BH3-Sepharose; biotinylated 388F1, amplification system

Sequence of UniProt P02769 (P02769 25-607 limits assumed): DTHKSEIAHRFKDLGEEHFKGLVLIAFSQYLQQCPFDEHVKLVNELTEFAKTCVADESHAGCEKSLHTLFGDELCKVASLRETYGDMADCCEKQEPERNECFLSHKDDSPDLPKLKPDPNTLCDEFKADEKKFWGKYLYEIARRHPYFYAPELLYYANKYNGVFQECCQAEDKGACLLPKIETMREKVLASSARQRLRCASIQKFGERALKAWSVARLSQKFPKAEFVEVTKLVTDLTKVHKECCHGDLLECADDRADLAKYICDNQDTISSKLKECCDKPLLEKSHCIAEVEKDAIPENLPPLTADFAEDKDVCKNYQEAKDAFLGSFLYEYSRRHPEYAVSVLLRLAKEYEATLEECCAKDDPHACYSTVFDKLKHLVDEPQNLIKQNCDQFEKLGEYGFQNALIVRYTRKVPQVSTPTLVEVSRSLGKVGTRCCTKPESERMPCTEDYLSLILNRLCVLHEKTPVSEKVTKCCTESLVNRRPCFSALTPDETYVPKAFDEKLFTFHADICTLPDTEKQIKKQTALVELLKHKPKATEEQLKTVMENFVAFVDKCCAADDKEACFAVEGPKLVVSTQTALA

## monoclonal anti-human GIF antibody 388F1 (ATCC HB 10472)
[1]
  GIF activity of the flow-through relative to the eluate fraction: < 0.1 fold
[2]
  ELISA control (nonspecific binding to BSA-coated wells, OD 410): 0.1 OD 410
[3]
  ELISA signal (absorption at 490 nm) (absorbance 490 nm): 0.86
[4]
  GIF activity recovered in the acid eluate fraction: > 75%
[5]
  ELISA signal (absorption at 490 nm) (absorbance 490 nm): 0.36
